According to patent US20170298121A1 (GlaxoSmithKline, published 2017):

B1: DOM7h-11-12/DOM1m-21-23 fusion DMS number 5516 (other)
chain: EVQLLESGGGLVQPGGSLRLSCAASGFTFNRYSMGWLRQAPGKGLEWVSRIDSYGRGTYYEDPVKGRFSISRDNSKNTLYLQMNSLRAEDTAVYYCAKISQFGSNAFDYWGQGTQVTVSSASTSGPSDIQMTQSPSSLSASVGDRVTITCRASRPIGTMLSWYQQKPGKAPKLLILFGSRLQSGVPSRFSGSGSGTDFTLTISSLQPEDFATYYCAQAGTHPTTFGQGTKVEIKRAAAEQKLISEEDLN
notes: DOM1m-21-23 - ASTSGPS - DOM7h-11-12 - myc tag; also called DMS5516
B2: DOM7h-11-15/DOM1m-21-23 fusion DMS number 5517 (other)
chain: EVQLLESGGGLVQPGGSLRLSCAASGFTFNRYSMGWLRQAPGKGLEWVSRIDSYGRGTYYEDPVKGRFSISRDNSKNTLYLQMNSLRAEDTAVYYCAKISQFGSNAFDYWGQGTQVTVSSASTSGPSDIQMTQSPSSLSASVGDRVTITCRASRPIGTMLSWYQQKPGKAPKLLILAFSRLQSGVPSRFSGSGSGTDFTLTISSLQPEDFATYYCAQAGTHPTTFGQGTKVEIKRAAAEQKLISEEDLN
notes: DOM1m-21-23 - ASTSGPS - DOM7h-11-15 - myc tag; also called DMS5517; DOM1m21-23-DOM7h11-15

Biological target: T1, Rat Serum Albumin (rat, UniProt P02770 25-608)
T1 construct: Bought purified serum albumin; coupled to CM5 chips for BiaCore; also called RSA; rat SA
Assay: SPR (BiaCore)

T1 sequence (P02770 25-608 limits assumed): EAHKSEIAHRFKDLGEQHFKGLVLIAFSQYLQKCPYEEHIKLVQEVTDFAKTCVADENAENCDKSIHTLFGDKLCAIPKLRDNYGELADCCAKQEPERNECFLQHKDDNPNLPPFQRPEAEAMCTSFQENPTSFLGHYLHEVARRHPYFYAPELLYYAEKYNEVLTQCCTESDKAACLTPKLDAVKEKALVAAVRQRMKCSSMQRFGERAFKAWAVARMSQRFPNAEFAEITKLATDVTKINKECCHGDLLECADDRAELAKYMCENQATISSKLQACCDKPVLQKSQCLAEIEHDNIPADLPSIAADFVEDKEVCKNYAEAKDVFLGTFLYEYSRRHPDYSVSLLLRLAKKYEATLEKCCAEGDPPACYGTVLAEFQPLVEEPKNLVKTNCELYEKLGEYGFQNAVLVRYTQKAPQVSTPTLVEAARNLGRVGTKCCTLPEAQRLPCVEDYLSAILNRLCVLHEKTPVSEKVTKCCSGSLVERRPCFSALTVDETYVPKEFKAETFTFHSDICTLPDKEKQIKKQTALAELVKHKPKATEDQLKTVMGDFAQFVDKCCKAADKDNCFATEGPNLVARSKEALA

Row | Binder | fold decrease in affinity against the unfused ALBUDAB [fold]
1 | B1 | 2
2 | B2 | 2
